Laboratory results taken from PMC11775523.

Test system: Exo1 (exonuclease)
Assay: ITC
Details: ITC: 67 mM glycine-KOH, 6.7 mM MgCl2, 1 mM TCEP, 37 C (Methods: 100 uM aptamer into 10 uM Exo1; Results text: 10 uM into 1 uM). Cells: Dulbecco's PBS, 5 mM …

Sequence | Kd [µM] | Kd (5'-terminal GalNAc-modified base (N1, printed X), position 12 is also printed X, but the text describes only 5' modification, so likely a misprint for T) [µM]
ATCTAACTGCTGCGCCGCCGGGAAAATACTGTACGGTTAGA [Sgc8 (S01)] | 0.001 | –
NATCTAACTGCNGCGCCGCCGGGAAAATACTGTACGGTTAGAT [GS01 (5' GalN-Sgc8)] | – | 662
